# Reference: patent US20180155451A1 (published 2018)
# T1: FcγRIIb (human, UniProt P31994 43-217)
# T1 construct: extracellular domain; also called FcgRIIb; 2b
# T1 sequence (looked up): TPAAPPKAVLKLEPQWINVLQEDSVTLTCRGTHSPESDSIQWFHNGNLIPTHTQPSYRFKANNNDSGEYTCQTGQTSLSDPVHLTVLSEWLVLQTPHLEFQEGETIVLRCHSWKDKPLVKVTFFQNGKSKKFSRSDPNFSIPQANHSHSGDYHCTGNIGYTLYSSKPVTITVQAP
# Tests used:
# FcγRIa = biological target: T2, FcγRIa (human, UniProt P12314 16-292); assay: SPR, captured antibody; relative to GpH7-A5/GpH7-B3/GpL16-k0
# T2 construct: extracellular domain; also called FcgRI; 1a
# FcγRIIb = biological target: T1, FcγRIIb; assay: as above
# T2 sequence (P12314 16-292): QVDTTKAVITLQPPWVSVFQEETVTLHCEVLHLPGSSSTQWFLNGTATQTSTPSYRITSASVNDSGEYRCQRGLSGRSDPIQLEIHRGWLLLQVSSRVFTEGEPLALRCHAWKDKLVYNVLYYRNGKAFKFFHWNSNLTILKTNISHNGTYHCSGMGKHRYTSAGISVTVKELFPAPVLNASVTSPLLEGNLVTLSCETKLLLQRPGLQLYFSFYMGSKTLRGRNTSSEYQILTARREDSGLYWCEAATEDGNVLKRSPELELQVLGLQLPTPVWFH
He/Con_1a (FcγRIa),He/Con_2b (FcγRIIb),Binder
"98 relative, HeCon Ab = 100","81 relative, HeCon Ab = 100","GpH7-A5/GpH7-B3 variant (L235_06M)/GpL16-k0 (antibody, human IgG1, kappa, IgG1 heterodimer, mutation in the GpH7-B3 chain only; also called He Ab) heavy 1: not shown heavy 2: not shown light: DIVMTQSPLSLPVTPGEPASISCQASESLVHSNRNTYLHWYLQKPGQSPQLLIYKVSNRFSGVPDRFSGSGSGTDFTLKISRVEAEDVGVYYCSQNTHVPPTFGQGTKVEIERTVAAPSVFIFPPSDEQLKSGTASVVCLLNNFYPREAKVQWKVDNALQSGNSQESVTEQDSKDSTYSLSSTLTLSKADYEKHKVYACEVTHQGLSSPVTKSFNRGEC"
"102 relative, HeCon Ab = 100","47.7 relative, HeCon Ab = 100","GpH7-A5/GpH7-B3 variant (S267_18N)/GpL16-k0 (antibody, human IgG1, kappa, IgG1 heterodimer, mutation in the GpH7-B3 chain only; also called He Ab) heavy 1: not shown heavy 2: not shown light: DIVMTQSPLSLPVTPGEPASISCQASESLVHSNRNTYLHWYLQKPGQSPQLLIYKVSNRFSGVPDRFSGSGSGTDFTLKISRVEAEDVGVYYCSQNTHVPPTFGQGTKVEIERTVAAPSVFIFPPSDEQLKSGTASVVCLLNNFYPREAKVQWKVDNALQSGNSQESVTEQDSKDSTYSLSSTLTLSKADYEKHKVYACEVTHQGLSSPVTKSFNRGEC"
"100 relative, HeCon Ab = 100","65.9 relative, HeCon Ab = 100","GpH7-A5/GpH7-B3 variant (S267_16H)/GpL16-k0 (antibody, human IgG1, kappa, IgG1 heterodimer, mutation in the GpH7-B3 chain only; also called He Ab) heavy 1: not shown heavy 2: not shown light: DIVMTQSPLSLPVTPGEPASISCQASESLVHSNRNTYLHWYLQKPGQSPQLLIYKVSNRFSGVPDRFSGSGSGTDFTLKISRVEAEDVGVYYCSQNTHVPPTFGQGTKVEIERTVAAPSVFIFPPSDEQLKSGTASVVCLLNNFYPREAKVQWKVDNALQSGNSQESVTEQDSKDSTYSLSSTLTLSKADYEKHKVYACEVTHQGLSSPVTKSFNRGEC"
"92.2 relative, HeCon Ab = 100","54.9 relative, HeCon Ab = 100","GpH7-A5/GpH7-B3 variant (L235_18N)/GpL16-k0 (antibody, human IgG1, kappa, IgG1 heterodimer, mutation in the GpH7-B3 chain only; also called He Ab) heavy 1: not shown heavy 2: not shown light: DIVMTQSPLSLPVTPGEPASISCQASESLVHSNRNTYLHWYLQKPGQSPQLLIYKVSNRFSGVPDRFSGSGSGTDFTLKISRVEAEDVGVYYCSQNTHVPPTFGQGTKVEIERTVAAPSVFIFPPSDEQLKSGTASVVCLLNNFYPREAKVQWKVDNALQSGNSQESVTEQDSKDSTYSLSSTLTLSKADYEKHKVYACEVTHQGLSSPVTKSFNRGEC"
"102 relative, HeCon Ab = 100","74.8 relative, HeCon Ab = 100","GpH7-A5/GpH7-B3 variant (P271_03V)/GpL16-k0 (antibody, human IgG1, kappa, IgG1 heterodimer, mutation in the GpH7-B3 chain only; also called He Ab) heavy 1: not shown heavy 2: not shown light: DIVMTQSPLSLPVTPGEPASISCQASESLVHSNRNTYLHWYLQKPGQSPQLLIYKVSNRFSGVPDRFSGSGSGTDFTLKISRVEAEDVGVYYCSQNTHVPPTFGQGTKVEIERTVAAPSVFIFPPSDEQLKSGTASVVCLLNNFYPREAKVQWKVDNALQSGNSQESVTEQDSKDSTYSLSSTLTLSKADYEKHKVYACEVTHQGLSSPVTKSFNRGEC"
"101 relative, HeCon Ab = 100","86.1 relative, HeCon Ab = 100","GpH7-A5/GpH7-B3 variant (S239_19Q)/GpL16-k0 (antibody, human IgG1, kappa, IgG1 heterodimer, mutation in the GpH7-B3 chain only; also called He Ab) heavy 1: not shown heavy 2: not shown light: DIVMTQSPLSLPVTPGEPASISCQASESLVHSNRNTYLHWYLQKPGQSPQLLIYKVSNRFSGVPDRFSGSGSGTDFTLKISRVEAEDVGVYYCSQNTHVPPTFGQGTKVEIERTVAAPSVFIFPPSDEQLKSGTASVVCLLNNFYPREAKVQWKVDNALQSGNSQESVTEQDSKDSTYSLSSTLTLSKADYEKHKVYACEVTHQGLSSPVTKSFNRGEC"
"104 relative, HeCon Ab = 100","88 relative, HeCon Ab = 100","GpH7-A5/GpH7-B3 variant (P271_02A)/GpL16-k0 (antibody, human IgG1, kappa, IgG1 heterodimer, mutation in the GpH7-B3 chain only; also called He Ab) heavy 1: not shown heavy 2: not shown light: DIVMTQSPLSLPVTPGEPASISCQASESLVHSNRNTYLHWYLQKPGQSPQLLIYKVSNRFSGVPDRFSGSGSGTDFTLKISRVEAEDVGVYYCSQNTHVPPTFGQGTKVEIERTVAAPSVFIFPPSDEQLKSGTASVVCLLNNFYPREAKVQWKVDNALQSGNSQESVTEQDSKDSTYSLSSTLTLSKADYEKHKVYACEVTHQGLSSPVTKSFNRGEC"
"102 relative, HeCon Ab = 100","59.5 relative, HeCon Ab = 100","GpH7-A5/GpH7-B3 variant (P271_04F)/GpL16-k0 (antibody, human IgG1, kappa, IgG1 heterodimer, mutation in the GpH7-B3 chain only; also called He Ab) heavy 1: not shown heavy 2: not shown light: DIVMTQSPLSLPVTPGEPASISCQASESLVHSNRNTYLHWYLQKPGQSPQLLIYKVSNRFSGVPDRFSGSGSGTDFTLKISRVEAEDVGVYYCSQNTHVPPTFGQGTKVEIERTVAAPSVFIFPPSDEQLKSGTASVVCLLNNFYPREAKVQWKVDNALQSGNSQESVTEQDSKDSTYSLSSTLTLSKADYEKHKVYACEVTHQGLSSPVTKSFNRGEC"
"101 relative, HeCon Ab = 100","97.3 relative, HeCon Ab = 100","GpH7-A5/GpH7-B3 variant (S239_14T)/GpL16-k0 (antibody, human IgG1, kappa, IgG1 heterodimer, mutation in the GpH7-B3 chain only; also called He Ab) heavy 1: not shown heavy 2: not shown light: DIVMTQSPLSLPVTPGEPASISCQASESLVHSNRNTYLHWYLQKPGQSPQLLIYKVSNRFSGVPDRFSGSGSGTDFTLKISRVEAEDVGVYYCSQNTHVPPTFGQGTKVEIERTVAAPSVFIFPPSDEQLKSGTASVVCLLNNFYPREAKVQWKVDNALQSGNSQESVTEQDSKDSTYSLSSTLTLSKADYEKHKVYACEVTHQGLSSPVTKSFNRGEC"
